This note sets out measurements from patent publication US20240029824A1 (University of Washington, published 2024).

Test [1] concerns the target T1, DHT03_variant_AB-2 chain B.
T1 chain: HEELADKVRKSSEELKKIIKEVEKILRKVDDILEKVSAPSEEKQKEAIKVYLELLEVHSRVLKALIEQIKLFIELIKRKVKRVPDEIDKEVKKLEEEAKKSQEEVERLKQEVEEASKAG
As to the kind of experiment: native MS; loop-connectivity variant of DHT03, AB heterodimer.

The target in test [2] is T2, DHT03_variant_AB-4 chain B.
T2 chain: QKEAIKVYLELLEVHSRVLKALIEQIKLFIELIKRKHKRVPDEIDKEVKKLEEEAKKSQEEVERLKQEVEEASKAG
The test is described as above.

For the next test, the target named is T3, DHT07 chain C.
T3 chain: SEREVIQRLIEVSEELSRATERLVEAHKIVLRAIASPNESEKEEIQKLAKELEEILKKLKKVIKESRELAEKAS
As to the kind of experiment: co-expression, IMAC, SEC, native MS; chains of one ABC heterotrimer. From the text:
(§1) Genes encoding 85 heterotrimers in a tricistronic expression vector were obtained, and the proteins were expressed in E. coli and purified via IMAC with only one chain having the 6×His-tag. Nine of the designs (FIG. 3a) had monodisperse SEC peaks (FIG. 3b), were almost exclusively ABC by nMS, and had good SAXS fits to the design models (Table 7). […] Eight of the designs are parallel heterotrimers, while DHTO9 is an antiparallel heterotrimer. […] For 3 other designs, only the ABC heterotrimer was determined to form by nMS (when the respective SEC fraction was analyzed) but the heterotrimer SEC peak was preceded by soluble aggregate that would make building with these constructs difficult downstream. We explored the dependence of cooperativity on connectivity between the three chains by changing the positions of the loops across different helices in DHT03, while keeping the rest of the interface intact. […] The ability to sustain alternate loop closures increases the number of heteromeric building blocks available for future nanostructure assembly applications and may enable rigid fusion of functional domains to the different termini available.
(§2) Samples were analyzed by online buffer exchange native mass spectrometry (nMS) to evaluate sample purity and accurately determine oligomeric states⁴². Multiple instruments were used as the analyses were carried out over the duration of the protein design process. The mass spectrometers used for detection were a Q Exactive™ UHMR modified with a surface-induced dissociation device and an Exactive™ Plus EMR modified with a selection quadrupole and a surface-induced dissociation device (Thermo Fisher Scientific)⁴³. The liquid chromatography systems used for the buffer exchange include a Vanquish™ Duo UHPLC and a Dionex™ Ultimate 3000 HPLC (Thermo Fisher Scientific). A heated electrospray ionization source (HESI-II, Thermo Fisher Scientific) with a spray voltage of ˜4 kV was used for ionization.

For another test, the target named is T4, DHT07 chain B.
T4 chain: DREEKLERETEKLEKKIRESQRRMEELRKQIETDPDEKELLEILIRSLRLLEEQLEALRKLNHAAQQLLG
The description is as above.
Source text: as §1, §2

The target in a further test is T5, DHT02 chain B.
T5 chain: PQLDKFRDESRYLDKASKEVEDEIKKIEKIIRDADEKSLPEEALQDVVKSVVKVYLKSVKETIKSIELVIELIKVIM
Described as above.
Source text: as §1, §2

The next test concerns the target T6, DHT02 chain C.
T6 chain: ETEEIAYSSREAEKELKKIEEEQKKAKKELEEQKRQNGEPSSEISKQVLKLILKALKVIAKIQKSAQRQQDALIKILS
The description is as above.
Source text: as §1, §2

The target in a further test is T7, C4-DHT03-02 chain B.
T7 construct: four copies in the A4B4C4 ring
T7 chain: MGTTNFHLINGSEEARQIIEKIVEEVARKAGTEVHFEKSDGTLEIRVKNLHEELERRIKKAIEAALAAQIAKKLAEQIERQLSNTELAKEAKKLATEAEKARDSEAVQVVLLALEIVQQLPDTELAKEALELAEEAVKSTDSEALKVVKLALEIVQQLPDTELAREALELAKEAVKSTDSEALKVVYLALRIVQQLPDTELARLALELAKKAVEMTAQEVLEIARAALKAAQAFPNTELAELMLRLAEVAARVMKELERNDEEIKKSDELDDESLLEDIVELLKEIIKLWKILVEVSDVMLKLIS
Briefly: chains mixed and annealed, SEC, negative stain EM; A4B4C4 ring.

For test [3], the target named is T8, DHT03 chain C (SEQ ID NO: 59).
T8 chain: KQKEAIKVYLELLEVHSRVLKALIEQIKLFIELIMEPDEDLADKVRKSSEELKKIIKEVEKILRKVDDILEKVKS
The description is as above.

Test [4] has as its target T9, DHT03_variant_AB-1 chain B.
T9 chain: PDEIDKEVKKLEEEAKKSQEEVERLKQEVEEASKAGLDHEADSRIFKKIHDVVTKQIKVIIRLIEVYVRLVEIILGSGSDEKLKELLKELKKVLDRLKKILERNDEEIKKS
Briefly: native MS; loop-connectivity variant of DHT03, AB heterodimer.

For a further test, the target named is T10, DHT08 chain C.
T10 chain: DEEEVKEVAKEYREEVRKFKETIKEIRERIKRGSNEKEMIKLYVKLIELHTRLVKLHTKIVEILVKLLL
As to the kind of experiment: co-expression, IMAC, SEC, native MS; chains of one ABC heterotrimer.
Source text: as §1, §2

The next test addresses T11, DHT08 chain B.
T11 chain: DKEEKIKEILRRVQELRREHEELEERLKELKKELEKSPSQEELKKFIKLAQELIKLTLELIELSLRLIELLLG
The test is described as above.
Source text: as §1, §2

A further test has as its target T12, DHT04 chain C.
T12 chain: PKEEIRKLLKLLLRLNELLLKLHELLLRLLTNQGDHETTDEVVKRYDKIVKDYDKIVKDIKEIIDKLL
The test is described as above.
Source text: as §1, §2

The target in a further test is T13, DHT04 chain B.
T13 chain: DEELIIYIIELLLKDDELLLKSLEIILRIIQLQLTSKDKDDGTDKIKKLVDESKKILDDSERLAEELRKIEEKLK
The test is described as above.
Source text: as §1, §2

In another test the target is T14, DHT06 chain B.
T14 chain: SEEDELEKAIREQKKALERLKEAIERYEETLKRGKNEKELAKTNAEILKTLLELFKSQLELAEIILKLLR
Described as above.
Source text: as §1, §2

The target of another test is T15, DHT06 chain C.
T15 chain: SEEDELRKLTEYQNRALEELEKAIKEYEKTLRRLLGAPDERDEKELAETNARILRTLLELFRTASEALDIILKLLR
The test is described as above.
Source text: as §1, §2

The target in test [5] is T16, DHT03_variant_AB-3 chain B.
T16 chain: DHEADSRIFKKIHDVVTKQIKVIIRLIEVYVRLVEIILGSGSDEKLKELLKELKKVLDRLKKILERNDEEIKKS
Briefly: native MS; loop-connectivity variant of DHT03, AB heterodimer.

The next test addresses T17, DHT10 chain C.
T17 chain: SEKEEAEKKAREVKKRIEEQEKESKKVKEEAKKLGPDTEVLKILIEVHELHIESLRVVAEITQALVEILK
Briefly: co-expression, IMAC, SEC, native MS; chains of one ABC heterotrimer.
Source text: as §1, §2

A further test has as its target T18, DHT10 chain B.
T18 chain: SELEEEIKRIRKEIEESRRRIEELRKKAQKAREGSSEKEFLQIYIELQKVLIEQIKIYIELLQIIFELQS
Described as above.
Source text: as §1, §2

The next test addresses T19, DHT09 chain C.
T19 chain: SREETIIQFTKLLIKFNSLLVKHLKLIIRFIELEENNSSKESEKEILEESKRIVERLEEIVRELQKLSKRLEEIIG
Described as above.
Source text: as §1, §2

Another test addresses T20, DHT09 chain B.
T20 chain: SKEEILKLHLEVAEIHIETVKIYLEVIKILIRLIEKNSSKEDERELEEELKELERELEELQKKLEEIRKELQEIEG
The description is as above.
Source text: as §1, §2

B1: DHT03_variant_AB-2 chain A (designed binder)
chain: DHEADSRIFKKIHDVVTKQIKVIIRLIEVYVRLVEIILGSGSDEKLKELLKELKKVLDRLKKILERNDEEIKKSDELDDESLLEDIVELLKEIIKLWKILVELSDILLKLID
With B1, the binding result in [1] was “binds”.

B2: DHT03_variant_AB-4 chain A (designed binder)
chain: DHEADSRIFKKIHDVVTKQIKVIIRLIEVYVRLVEIILGSGSDEKLKELLKELKKVLDRLKKILERNDEEIKKSDELDDESLLEDIVELLKEIIKLWKILVELSDILLKLIGGDDKVRKSSEELKKIIKEVEKILRKVDDILYKVS
Regarding B2, the binding result in [2] is listed as “binds”.

B3: DHT07 chain A (designed binder)
chain: SEKELIQLYVEAQELYAEAFELQVEIFKLLVKILSANSPKDEKEKIEKRIEEVQKRIKEIQERLQEIQKRLEEAG
On to B3, for which the binding result in the test with DHT07 chain C and with DHT07 chain B was “binds” throughout.

B4: DHT02 chain A (designed binder)
chain: PDSDELRKLLKQLEDLLQQLKDLIDKAERHNGDNDVILELHEIYLRLLDIYQKLAKIILKLLR
In the case of B4, the binding result in the test with DHT02 chain B and with DHT02 chain C was “binds” in each case.

B5: C4-DHT03-02 chain A (designed binder)
chain: MGNTHFIVVHGGEEARQLAETAVREISKKEGTEVRFEKKDGLLSIEVKNLSEELQRLIQELLQLLVRLAALLEAVRAVEEAIKRNPDNDEAVETAVRLARELKKVAELLQELAKKAGVPAILRGALLALEVAVRAVELAIKSNPDNDEAVETAVRLARELLKVAAELAERAAKTKDEELIKLAQRAIEVAQRAVELAKKSNKDNEEAEKTRLALEAMELALQIFRQLKNTELAREAIELATEAAKATDSEALKVVKLALKIVQQLPDTELAKEALELAKEAVKSTDSEALKVVELALEIVQQLPDTELAKEALKLAKEAVKSTDSEALKVVYLALRIVQQLPDTELAREALELAKEAVKSTDSEQLEVVRLALEIVQLAPDTRLARAALKLAKEAVKSTDQEELKKVKAILRVASEVLKLEEEAKKSQEEVERLKQEVEKASKAGLDHEGDSRIFKKIHDVVTKQIKVILRLIAVYAELVAIIG
notes: four copies in the A4B4C4 ring
For the molecule B5, the binding result (in the test with C4-DHT03-02 chain B; in [3]) was “binds” in each case.

B6: DHT03_variant_AB-1 chain A (designed binder)
chain: DESLLEDIVELLKEIIKLWKILVELSDILLKLIGGDDKVRKSSEELKKIIKEVEKILRKVDDILYKVSAPSEEKQKEAIKVYLELLEVHSRVLKALIEQIKLFIELIKR
For the molecule B6, the binding result in test [4] is listed as “binds”.

B7: DHT08 chain A (designed binder)
chain: SKEEIEKELKKLKKELEELKREIEKSTKKLEEVRGSNSEKELIQIIKEQIEISERLLEISTRLLEIIIKLLG
On to B7, for which the binding result with DHT08 chain C and with DHT08 chain B was “binds” throughout.

B8: DHT04 chain A (designed binder)
chain: PERELLELLIRLFNSQVKLFELQKELLELLRELLEENSEDNSRKLEDLLRKIQELLKENQDLLYTVEDVLRKLK
In the case of B8, the binding result in the test with DHT04 chain C and with DHT04 chain B was “binds” in each case.

B9: DHT06 chain A (designed binder)
chain: DEKELAKTNAEILKTLLELFEAESRLQEIILKLLERPDEKEEDELKRALERLKEALERLEEAIKRYEETLKRLL
For B9, the binding result with DHT06 chain B and in the test with DHT06 chain C was “binds” in each case.

B10: DHT03_variant_AB-3 chain A (designed binder)
chain: DESLLEDIVELLKEIIKLWKILVELSDILLKLIGGDDKVRKSSEELKKIIKEVEKILRKVDDILYKVSAPSEEKQKEAIKVYLELLEVHSRVLKALIEQIKLFIELIKRKHKRVPDEIDKEVKKLEEEAKKSQEEVERLKQEVEEASKAG
Consider B10, for which the binding result in [5] is listed as “binds”.

B11: DHT10 chain A (designed binder)
chain: SEEEELKKLQEEIKKLKKQVERLEKESKELEKRLEKSPSEEIAKELLRITAELVEISEELAEATKRLLEIAG
For B11, the binding result with DHT10 chain C and in the test with DHT10 chain B was “binds” in each case.

B12: DHT09 chain A (designed binder)
chain: SEDEDLIRSVRVIQKSVEIILEMVKIIQELLKSTSEEELKELLKKLKRLIEKLEELLRQYEELLKKIKG
Take B12: the binding result with DHT09 chain C and with DHT09 chain B was “binds” throughout.
